Measurements published in patent publication US20190092852A1 (Genentech, published 2019).

B1: H4H9659P (antibody, IgG4, V domains shown)
VH: QVQLVQSGAEVKKPGASVKVSCKASGYTFNSYGISWVRQAPGQGLEWMGWISSHNGNSHYVQKFQGRVSMTTDTSTSTAYMELRSLRSDDTAVYYCARHSYTTSWYGGFDYWGQGTLVTVSS
VL: DIQMTQSPSSVSASVGDRVTITCRASQGFSSWLAWYQQKPGKAPQLLIYAASSLQSGVPSRFSGSGSGSDFTLTISSLQPEDFATYYCQQANSFPLTFGGGTKVEIK
notes: also called RG7
B2: 10C12.38.H6.87Y.58I IgG4 (antibody, V domains shown)
VH: EVQLVESGGGLVQPGGSLRLSCAASGFTFSSFSMSWVRQAPGKGLEWVATISGGKTFTDYVDSVKGRFTISRDDSKNTLYLQMNSLRAEDTAVYYCTRANYGNWFFEVWGQGTLVTVSS
VL: EIVLTQSPATLSLSPGERATLSCRASESVAKYGLSLLNWFQQKPGQPPRLLIFAASNRGSGIPARFSGSGSGTDFTLTISSLEPEDFAVYYCQQSKEVPFTFGQGTKVEIKR
notes: also called anti-IL33 10C12.38.H6.87Y.58I IgG4

Key:
Assay in all cases: cell-based or functional assay
[1] = target: T1, human IL-33 (R&D Systems, #3625-IL-010/CF) (human, UniProt O95760 112-270)
T1 sequence (looked up): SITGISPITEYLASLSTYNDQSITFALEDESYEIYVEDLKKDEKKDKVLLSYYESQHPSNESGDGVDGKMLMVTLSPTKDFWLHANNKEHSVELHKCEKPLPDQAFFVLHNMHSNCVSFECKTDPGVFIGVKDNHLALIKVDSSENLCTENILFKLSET

[2] = target: T2, cynomolgus monkey N-terminal 6-His-tagged and C-terminal Avi-tagged IL-33 (S112-T270) (cynomolgus monkey)
T2 chain: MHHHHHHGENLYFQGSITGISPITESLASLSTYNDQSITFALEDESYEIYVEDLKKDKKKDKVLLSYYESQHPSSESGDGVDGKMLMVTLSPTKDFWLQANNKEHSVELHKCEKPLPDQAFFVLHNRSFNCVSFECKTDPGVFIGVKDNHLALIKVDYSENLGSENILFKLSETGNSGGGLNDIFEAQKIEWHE

[3] = target: T2, cynomolgus monkey N-terminal …
[4] = target: T3, human IL-33 (construct not stated) (human, UniProt O95760 112-270)
T3 sequence (looked up): T1 sequence (looked up)

Binder | IC50; SEAP reporter (OD 620), HEK-BLUE IL-33/IL-1beta cells, 10 pM hIL-33 [1] [M] | IC50; SEAP reporter (OD 620), HEK-BLUE IL-33/IL-1beta cells, 5 pM cyno IL-33 (5pM cIL-33-Nhis) [2] [M] | HEK-BLUE SEAP reporter IC50 [3] [nM] | IC50 (read off the curve); phospho-p38 MFI in CD123+ basophils (average from 2 donors), 10 ng/ml IL-33 [4] [nM]
B1 | 9.2e-11 | 6.6e-08 | – | –
B2 | – | – | 4.2 | ~0.3
